Biological target: the molecule itself
Assay: SDS-PAGE of bicelle-reconstituted protein; protein reconstituted in DMPC-DH6PC bicelles (q = 0.5; DMPC:DH6PC approximately 1:2), 20 mM sodium phosphate pH 6.8; mixed with LDS loading buffer without heating or reducing agents; NuPAGE 12% gel, 200 V on ice

B1: human TNFR1 TM fragment, residue 209-238 (TNFR1 TMH), C223A M233A (domain or fragment, UniProt P19438 209-238, looked up)
chain: GTTVLLPLVIFFGLALLSLLFIGLAYRYQR
notes: TNFR1 (tumor necrosis factor receptor 1), human, isoform 1, transmembrane fragment residues 209-238 with C223A and M233A; Released from His9-TrpLE by cyanogen bromide at a methionine added between TrpLE and the fragment; Isotope-labelled (15N, 13C, 2H) for NMR; also called TNFR TMH; TMH of TNFR1; source: reconstituted in DMPC-DH6PC bicelles; not shown: His9, N-terminal, cleaved; TrpLE, …
stoichiometry N: 3
